Measurements published in US20020031803A1.

Tests used:
human p107 (human) = human p107 (human) (UniProt P28749)
human RB protein (human) = human RB protein (human) (UniProt P06400)
UniProt P06400, sequence (P06400 whole entry): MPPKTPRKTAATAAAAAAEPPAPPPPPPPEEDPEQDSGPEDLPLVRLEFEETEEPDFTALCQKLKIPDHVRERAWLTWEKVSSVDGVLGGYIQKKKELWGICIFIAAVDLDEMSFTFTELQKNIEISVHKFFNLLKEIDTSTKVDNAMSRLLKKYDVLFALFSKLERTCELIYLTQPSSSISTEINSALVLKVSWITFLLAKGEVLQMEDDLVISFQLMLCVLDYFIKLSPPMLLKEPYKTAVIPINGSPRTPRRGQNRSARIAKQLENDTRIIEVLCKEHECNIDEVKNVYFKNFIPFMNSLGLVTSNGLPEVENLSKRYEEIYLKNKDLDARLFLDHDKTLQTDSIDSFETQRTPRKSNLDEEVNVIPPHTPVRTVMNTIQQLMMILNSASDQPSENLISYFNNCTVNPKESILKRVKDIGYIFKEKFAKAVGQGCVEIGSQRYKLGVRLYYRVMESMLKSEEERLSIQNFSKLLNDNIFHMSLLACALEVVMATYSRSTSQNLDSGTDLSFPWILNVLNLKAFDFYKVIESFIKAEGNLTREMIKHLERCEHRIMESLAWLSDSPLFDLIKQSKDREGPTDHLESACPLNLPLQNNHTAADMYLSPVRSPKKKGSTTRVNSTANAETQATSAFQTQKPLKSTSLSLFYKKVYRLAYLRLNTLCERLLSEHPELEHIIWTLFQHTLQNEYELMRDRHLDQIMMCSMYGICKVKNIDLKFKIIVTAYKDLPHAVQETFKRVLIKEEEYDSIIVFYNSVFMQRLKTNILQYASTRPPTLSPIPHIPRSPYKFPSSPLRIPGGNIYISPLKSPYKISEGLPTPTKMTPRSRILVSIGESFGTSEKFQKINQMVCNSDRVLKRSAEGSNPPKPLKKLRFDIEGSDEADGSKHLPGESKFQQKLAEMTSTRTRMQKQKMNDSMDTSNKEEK

UniProt P28749, sequence (P28749 whole entry): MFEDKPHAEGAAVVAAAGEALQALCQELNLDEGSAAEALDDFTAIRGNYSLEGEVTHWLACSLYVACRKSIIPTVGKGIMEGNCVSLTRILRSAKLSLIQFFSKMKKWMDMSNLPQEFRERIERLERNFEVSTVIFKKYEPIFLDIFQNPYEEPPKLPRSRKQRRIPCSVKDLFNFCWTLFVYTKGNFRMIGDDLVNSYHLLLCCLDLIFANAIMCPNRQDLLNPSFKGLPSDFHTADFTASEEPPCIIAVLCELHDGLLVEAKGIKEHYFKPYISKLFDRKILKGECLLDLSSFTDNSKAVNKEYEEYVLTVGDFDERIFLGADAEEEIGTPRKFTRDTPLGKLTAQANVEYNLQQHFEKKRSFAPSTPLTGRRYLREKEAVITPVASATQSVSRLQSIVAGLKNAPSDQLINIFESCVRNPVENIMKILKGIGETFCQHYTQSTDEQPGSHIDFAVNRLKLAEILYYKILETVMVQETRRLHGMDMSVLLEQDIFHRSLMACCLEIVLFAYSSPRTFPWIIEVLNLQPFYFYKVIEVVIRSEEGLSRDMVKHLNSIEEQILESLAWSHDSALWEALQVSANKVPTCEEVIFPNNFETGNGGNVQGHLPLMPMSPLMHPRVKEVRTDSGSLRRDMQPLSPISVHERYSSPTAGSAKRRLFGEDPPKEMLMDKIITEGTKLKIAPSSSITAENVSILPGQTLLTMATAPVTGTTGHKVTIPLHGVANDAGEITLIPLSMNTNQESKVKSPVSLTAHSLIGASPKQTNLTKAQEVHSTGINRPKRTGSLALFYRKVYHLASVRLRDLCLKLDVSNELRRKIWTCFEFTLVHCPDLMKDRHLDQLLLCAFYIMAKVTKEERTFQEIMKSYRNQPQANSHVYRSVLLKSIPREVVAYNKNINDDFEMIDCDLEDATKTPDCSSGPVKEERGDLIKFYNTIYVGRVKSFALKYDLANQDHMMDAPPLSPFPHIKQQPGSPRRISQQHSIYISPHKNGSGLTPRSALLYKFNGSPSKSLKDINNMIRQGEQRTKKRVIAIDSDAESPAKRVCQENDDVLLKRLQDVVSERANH

wild-type SV40 large T antigen (from UniProt P03070 1-708) (other; other documents disagree on this pair)
Observed signal compared to T, % (human p107 (human)): 100%
Observed signal compared to T, % (human RB protein (human)): 100%

107-T mutant SV40 large T antigen (lysine for glutamic acid at codon 107) (from UniProt P03070 1-708) (other; other documents disagree on this pair)
Observed signal compared to T, % (human p107 (human)): 0%
Observed signal compared to T, % (human RB protein (human)): 0.03%
